Laboratory results as given in patent US20140005241 (The Curators of the University of Missouri, published 2014).

Biological target: SARS-CoV nsp13 helicase (SARS coronavirus, UniProt P0C6X7 P0C6X7:5302-5902)
Assay: EMSA
Conditions: tags: GST (baculovirus) or His6; label: 5'-Cy3; 20 nt 5' overhang, 40 bp duplex

B1: 60/40-mer (20ss:40ds) DNA (dsDNA)
DNA 1: TAGATAGCATTAGATAGCCACAGATAGCATCCTAGATAGCATTGGTGCTCGAACAGTGAC
DNA 2: GTCACTGTTCGAGCACCAATGCTATCTAGGATGCTATCTG
binding result: binds
